Data on 4 substances can be found in patent publication US20180244754A1.

This test has as its target human GH receptor (hGHR) (human) (UniProt P10912). As to the kind of experiment: cell-based or functional assay.
Sequence of UniProt P10912 (P10912 19-638): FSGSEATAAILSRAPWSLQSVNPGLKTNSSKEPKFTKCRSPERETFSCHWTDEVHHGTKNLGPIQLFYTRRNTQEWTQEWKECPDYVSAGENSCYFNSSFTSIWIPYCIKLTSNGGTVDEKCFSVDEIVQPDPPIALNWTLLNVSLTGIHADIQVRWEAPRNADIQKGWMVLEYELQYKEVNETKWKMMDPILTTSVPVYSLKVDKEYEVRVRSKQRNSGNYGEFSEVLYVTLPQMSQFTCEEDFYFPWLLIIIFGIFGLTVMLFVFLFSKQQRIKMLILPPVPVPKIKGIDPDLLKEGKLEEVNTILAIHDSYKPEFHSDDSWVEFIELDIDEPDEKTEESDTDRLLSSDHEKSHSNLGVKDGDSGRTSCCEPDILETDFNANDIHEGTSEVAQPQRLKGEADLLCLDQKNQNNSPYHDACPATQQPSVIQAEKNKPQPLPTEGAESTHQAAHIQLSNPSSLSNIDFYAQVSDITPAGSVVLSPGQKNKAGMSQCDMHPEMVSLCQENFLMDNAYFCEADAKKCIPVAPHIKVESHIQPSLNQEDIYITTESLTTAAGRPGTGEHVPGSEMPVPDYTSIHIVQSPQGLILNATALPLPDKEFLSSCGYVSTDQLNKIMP

Consider HSA-22KhGH (ligand), for which the EC50 (nM), cell growth activity using BaF3/hGHR cells (absorbance at 490 nM) was 0.138 nM.
22KhGH-HSA (ligand) showed an EC50 (nM), cell growth activity using BaF3/hGHR cells (absorbance at 490 nM) of 0.878 nM and an EC50 of 22KhGH-HSA relative to EC50 of HSA-22KhGH, cell growth activity using BaF3/hGHR cells of 6.4 times.
Turning to 22KhGH-mHSA (ligand), the EC50 (nM), cell growth activity using BaF3/hGHR cells (absorbance at 490 nM) was found to be 1.2 nM and the EC50 of 22KhGH-mHSA relative to EC50 of mHSA-22KhGH, cell growth activity using BaF3/hGHR cells came to 7.8 times.
The substance mHSA-22KhGH (ligand) had an EC50 (nM), cell growth activity using BaF3/hGHR cells (absorbance at 490 nM) of 0.153 nM.
